From publication PMC9436119, “Alkaline ceramidase catalyzes the hydrolysis of ceramides via a catalytic mechanism shared by Zn^2+-dependent amidases” (PLoS ONE, 2022)
Residue numbers refer to the chain shown, from its start. Names and notes keep the numbering of the source.

Legend:
[1] = target: T1, alkaline ceramidase 3 (ACER3) (Homo sapiens, UniProt Q9NUN7); experiment: microsomal ceramidase activity assay with NBD-C12-PHC, HPLC fluorescence; Lineweaver-Burk kinetics; format: biochemical
T1 sequence (Q9NUN7 1-267): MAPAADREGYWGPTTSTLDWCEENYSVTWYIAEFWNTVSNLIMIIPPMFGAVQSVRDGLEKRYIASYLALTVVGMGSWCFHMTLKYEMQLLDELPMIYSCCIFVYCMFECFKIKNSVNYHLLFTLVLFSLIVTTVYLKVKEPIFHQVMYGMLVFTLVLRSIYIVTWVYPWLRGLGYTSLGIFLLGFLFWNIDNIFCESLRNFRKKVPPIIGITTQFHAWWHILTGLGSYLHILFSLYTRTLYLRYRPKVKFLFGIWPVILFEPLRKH

[2] = substrate: CCCCCCCCCCCCCC[C@@H](O)[C@@H](O)[C@H](CO)NC(=O)CCCCCCCCCCCNc1ccc([N+](=O)[O-])c2nonc12; experiment: cells, lysate or membranes; format: biochemical, Homo sapiens
[3] = substrate: CCCCCCCCCCCCCC[C@@H](O)[C@@H](O)[C@H](CO)NC(=O)CCCCCCCCCCCNc1ccc([N+](=O)[O-])c2nonc12; experiment: Michaelis-Menten kinetics (KM), microsomal assay with HPLC fluorescence; format: biochemical, Homo sapiens; details: Zn2+ (Ca2+ in buffer) Zn2+ active site

For `CC(/C=C/C(=O)NO)=C\[C@@H](C)C(=O)c1ccc(N(C)C)cc1` [TSA, Trichostatin A], the IC50 [1] was 71.4 µM.

B1: alkaline ceramidase 3 (ACER3) (Homo sapiens) (protein)
chain: T1 sequence (Q9NUN7 1-267)
notes: FLAG-tagged open reading frame of wild-type ACER3, in microsomes of yeast Δypc1Δydc1 cells
Work on B1 yielded a Km ([2]; Zn2+ (Ca2+ in buffer) Zn2+ active site (His81, His217, His221, Asp92, Ser77)) of 15.48 ± 1.248 µM.

B2: alkaline ceramidase 3 (ACER3) (Homo sapiens; S77A) (protein)
chain: T1 sequence (Q9NUN7 1-267) with S77A
notes: FLAG-tagged ACER3 S77A, in microsomes of yeast Δypc1Δydc1 cells
B2 was tested, and the Km [3] was 38 µM.

B3: alkaline ceramidase 3 (ACER3) (Homo sapiens; S77C) (protein)
chain: T1 sequence (Q9NUN7 1-267) with S77C
notes: FLAG-tagged ACER3 S77C, in microsomes of yeast Δypc1Δydc1 cells
With B3 the Km ([2]; Zn2+ (Ca2+ in buffer) Zn2+ active site) was 66.43 ± 6.143 µM.
